Among the data in paper PMC3646756 are Kd, total hsIL-6R plasma concentration after PH-v1, 1 mg/kg i.v., normal mice steady-state model (reduction below the baseline) and fold decrease in total hsIL-6R plasma concentration after PH-v4 against NPH-IgG1, 1 mg/kg i.v. with 1 g/kg hIgG, hFcRn-Tgm steady-state model values, retold here.

The term Kd denotes the equilibrium constant for the complex coming apart. A lower Kd goes with a tighter complex.

Assay [1] has as its target hIgG1 Fc variant v1 (I332V/N434Y) (human). Put plainly: SPR; KD at pH 6.0 (Table 1); set-up told only for pH 7.0: antibody variant captured on Protein L on a CM4 chip, FcRn injected. Background: Surface plasmon resonance follows binding to a sensor surface in real time, without labels.
Assay [2] concerns the target hIgG1 (anti-hsIL-6R antibody with wild-type human IgG1 constant region) (human). The assay is described as above.
In assay [3] the target is hIgG1 Fc variant v1 (I332V/N434Y) (human). Put plainly: SPR; Biacore T200; antibody variant captured on Protein L immobilised on a CM4 chip, FcRn injected over the flow cell; pH 7.0.
The target in assay [4] is hIgG1 (anti-hsIL-6R antibody with wild-type human IgG1 constant region) (human). The assay is described as above.
Assay [5] deals with recombinant mouse FcRn (mouse) (UniProt Q61559).
In assay [6] the target is hIgG1 Fc variant v4 (M252Y/N286E/N434Y) (human). Description: SPR; KD at pH 6.0 (Table 1); set-up told only for pH 7.0: antibody variant captured on Protein L on a CM4 chip, FcRn injected.
Assay [7] deals with hIgG1 Fc variant v6 (M252Y/V308P/N434Y) (human). The assay is described as above.
The target of assay [8] is hIgG1 Fc variant v3 (M252Y/N434Y) (human). The assay is described as above.
Assay [9] deals with hIgG1 Fc variant v5 (M252Y/T307Q/Q311A/N434Y) (human). The description is as above.
The target of assay [10] is hIgG1 Fc variant v2 (M252W/N434W) (human). The assay is described as above.
Assay [11] deals with hIgG1 Fc variant v6 (M252Y/V308P/N434Y) (human). Description: SPR; Biacore T200; antibody variant captured on Protein L immobilised on a CM4 chip, FcRn injected over the flow cell; pH 7.0.
For assay [12], the target named is hIgG1 Fc variant v3 (M252Y/N434Y) (human). The assay is described as above.
In assay [13] the target is hIgG1 Fc variant v5 (M252Y/T307Q/Q311A/N434Y) (human). The assay is described as above.
In assay [14] the target is hIgG1 Fc variant v2 (M252W/N434W) (human). Described as above.
Assay [15] addresses recombinant human FcRn (human) (UniProt P55899).

As for “recombinant mouse FcRn (from UniProt Q61559 22-365) (receptor)”, the Kd in [1] came out at 3 nM; in [2], 237 nM; in assay [3] it was 52 nM; in [4], 3.92 µM.
As to “hIgG1 Fc variant v1 (I332V/N434Y) (antibody)”, in [5], the total hsIL-6R plasma concentration after PH-v1, 1 mg/kg i.v., normal mice steady-state model (reduction below the baseline) worked out at 150 fold.
For “recombinant human FcRn (from UniProt P55899 24-365) (receptor)”, the Kd in assay [6] is 8 nM; in assay [7], 3 nM; in assay [2], 1380 nM; in assay [8] it was 15 nM; in assay [9] it was 5 nM; in assay [10], 6 nM. Also, the equilibrium dissociation constant (Kd) turned out to be 35 nM in assay [11]; 88 µM in [4]; 288 nM in assay [12]; 77 nM in [13]; 155 nM in assay [14].
On to “hIgG1 Fc variant v4 (M252Y/N286E/N434Y) (antibody)”, for which the fold decrease in total hsIL-6R plasma concentration after PH-v4 against NPH-IgG1, 1 mg/kg i.v. with 1 g/kg hIgG, hFcRn-Tgm steady-state model in assay [15] amounted to 50 fold.
